According to PMC10397247:
Read-outs that look alike come from different tables or passages of the source. Each block holds one binder with its values, some of them ahead of it.

Legend:
Test in all cases: two-hybrid library CCmax;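 note: natural log of median RNA to DNA barcode read ratio; higher means stronger binding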
[1] = target: T1, 4H688-AA; conditions: mean of both orientations
T1 chain: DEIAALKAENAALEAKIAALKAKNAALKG

[2] = target: T2, 4H963-AA; conditions: mean of both orientations
T2 chain: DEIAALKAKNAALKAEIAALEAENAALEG

[3] = target: T3, 4H123-AA; conditions: mean of both orientations
T3 chain: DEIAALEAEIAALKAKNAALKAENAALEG

[4] = target: T4, 4H1153-AA
T4 chain: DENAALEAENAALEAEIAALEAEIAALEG

[5] = target: T5, 4H2078-AA; conditions: mean of both orientations
T5 chain: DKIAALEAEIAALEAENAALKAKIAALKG

[6] = target: T6, 4H2575-AA
T6 chain: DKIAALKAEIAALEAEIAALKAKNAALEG

[7] = target: T7, 4H3921-AA; conditions: mean of both orientations
T7 chain: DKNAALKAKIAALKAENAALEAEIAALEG

[8] = target: T8, 4H1636-AA; conditions: mean of both orientations
T8 chain: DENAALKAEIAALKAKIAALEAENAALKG

[9] = target: T9, 4H3855-AA; conditions: mean of both orientations
T9 chain: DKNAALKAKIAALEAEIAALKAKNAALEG

[10] = target: T10, 4H953-AA; conditions: mean of both orientations
T10 chain: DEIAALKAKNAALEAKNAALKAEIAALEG

[11] = target: T11, 4H918-AA; conditions: mean of both orientations
T11 chain: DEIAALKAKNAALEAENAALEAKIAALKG

[12] = target: T12, 4H967-AA; conditions: mean of both orientations
T12 chain: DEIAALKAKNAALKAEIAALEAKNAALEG

[13] = target: T13, 4H3354-AA; conditions: mean of both orientations
T13 chain: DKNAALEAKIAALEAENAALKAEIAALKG

[14] = target: T14, 4H2888-AA; conditions: mean of both orientations
T14 chain: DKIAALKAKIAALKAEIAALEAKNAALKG

[15] = target: T15, 4H2622-AA; conditions: mean of both orientations
T15 chain: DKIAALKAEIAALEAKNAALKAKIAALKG

[16] = target: T16, 4H43-AA; conditions: mean of both orientations
T16 chain: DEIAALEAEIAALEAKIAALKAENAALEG

[17] = target: T17, P6-AA-1HAA-N; conditions: mean of both orientations
T17 chain: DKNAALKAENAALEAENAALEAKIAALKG

[18] = target: T18, 4H3905-AA; conditions: mean of both orientations
T18 chain: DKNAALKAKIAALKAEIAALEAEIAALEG

[19] = target: T19, 4H3587-AA; conditions: mean of both orientations
T19 chain: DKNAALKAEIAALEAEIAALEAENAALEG

[20] = target: T20, 4H3625-AA; conditions: mean of both orientations
T20 chain: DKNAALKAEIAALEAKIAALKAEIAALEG

[21] = target: T21, 4H510-AA; conditions: mean of both orientations
T21 chain: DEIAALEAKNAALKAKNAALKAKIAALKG

[22] = target: T22, 4H337-AA; conditions: mean of both orientations
T22 chain: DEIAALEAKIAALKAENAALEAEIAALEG

[23] = target: T23, 4H451-AA
T23 chain: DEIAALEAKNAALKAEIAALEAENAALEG

[24] = target: T24, 4H1392-AA; conditions: mean of both orientations
T24 chain: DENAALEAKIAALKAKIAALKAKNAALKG

[25] = target: T25, 4H2705-AA; conditions: mean of both orientations
T25 chain: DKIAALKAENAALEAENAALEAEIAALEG

[26] = target: T26, 4H4038-AA; conditions: mean of both orientations
T26 chain: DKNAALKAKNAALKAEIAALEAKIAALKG

[27] = target: T27, 4H1349-AA; conditions: mean of both orientations
T27 chain: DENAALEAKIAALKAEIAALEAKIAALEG

[28] = target: T28, 4H1257-AA
T28 chain: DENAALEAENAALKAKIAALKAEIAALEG

[29] = target: T29, 4H1913-AA; conditions: mean of both orientations
T29 chain: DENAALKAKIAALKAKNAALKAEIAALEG

[30] = target: T30, P11-AA; conditions: mean of both orientations
T30 chain: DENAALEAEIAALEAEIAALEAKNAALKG

[31] = target: T31, 4H_APH3
T31 chain: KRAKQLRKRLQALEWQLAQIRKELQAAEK

[32] = target: T32, 4H_APH2
T32 chain: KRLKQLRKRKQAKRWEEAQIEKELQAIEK

[33] = target: T33, zCON9_D; conditions: mean of both orientations
T33 chain: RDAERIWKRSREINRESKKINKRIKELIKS

[34] = target: T34, AP4-AA; conditions: mean of both orientations
T34 chain: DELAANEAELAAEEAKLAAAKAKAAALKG

[35] = target: T35, AP7-AA; conditions: mean of both orientations
T35 chain: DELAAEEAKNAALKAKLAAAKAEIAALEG

[36] = target: T36, AP8-AA; conditions: mean of both orientations
T36 chain: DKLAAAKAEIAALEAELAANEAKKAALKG

[37] = target: T37, P12-AA; conditions: mean of both orientations
T37 chain: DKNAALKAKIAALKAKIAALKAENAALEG

[38] = target: T38, AP1-AA; conditions: mean of both orientations
T38 chain: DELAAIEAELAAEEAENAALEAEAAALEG

[39] = target: T39, 4H_APH4
T39 chain: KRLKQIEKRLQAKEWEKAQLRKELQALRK

[40] = target: T40, AP2-AA; conditions: mean of both orientations
T40 chain: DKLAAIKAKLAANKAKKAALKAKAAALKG

[41] = target: T41, P2-AA; conditions: mean of both orientations
T41 chain: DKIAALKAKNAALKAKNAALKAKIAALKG

[42] = target: T42, AP6-AA; conditions: mean of both orientations
T42 chain: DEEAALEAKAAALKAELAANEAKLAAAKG

[43] = target: T43, P4-AA; conditions: mean of both orientations
T43 chain: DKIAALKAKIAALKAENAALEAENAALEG

Binder: DENAALKAEIAALKAENAALKAEIAALKG [4H1626-AA]
- interaction score [1]: -1.19
- interaction score [2]: -1.46

Binder: DENAALEAENAALEAEIAALEAEIAALEG [4H1153-AA]
- interaction score [3]: -2.05
- interaction score [4]: -1.43
- interaction score [5]: -0.975
- interaction score [6]: -0.264
- interaction score [7]: -1.87
- interaction score [8]: -1.31

Binder: DKIAALEAEIAALKAKNAALEAKIAALEG [4H2165-AA]
- interaction score ([6]; mean of both orientations): -1.19
- interaction score [7]: -1.58

Binder: DENAALEAKIAALKAKIAALKAEIAALEG [4H1385-AA]
- interaction score [14]: 1.96
- interaction score [15]: 1.24
- interaction score [16]: 1.97
- interaction score [17]: -0.2
- interaction score [18]: 2.31
- interaction score [19]: 1.58
- interaction score [20]: 1.76
- interaction score [21]: -1.54
- interaction score [22]: 0.173
- interaction score [23]: -1.11
- interaction score [24]: -0.355
- interaction score [25]: -1.8
- interaction score [26]: 1.56

Binder: DENAALEAENAALKAKIAALKAEIAALEG [4H1257-AA]
- interaction score [27]: 0.365
- interaction score [28]: 0.41
- interaction score [9]: -0.401
- interaction score [29]: -0.977
- interaction score [10]: -1.45
- interaction score [11]: -1.05
- interaction score [12]: -0.389
- interaction score [13]: -1.6

Binder: DENAALEAKIAALKAEIAALEAKIAALKG [4H1350-AA]
- interaction score [14]: 2.21
- interaction score [15]: 1.12
- interaction score [16]: 2.09
- interaction score [18]: 1.9
- interaction score [19]: 1.39
- interaction score [20]: 1.97
- interaction score [21]: -1.17
- interaction score [22]: 1.52
- interaction score ([23]; mean of both orientations): 0.115
- interaction score [24]: -0.186
- interaction score [25]: -1.8
- interaction score [26]: 0.909

Binder: DENAALEAEIAALEAKIAALEAKNAALKG [4H1064-AA]
- interaction score [27]: 0.539
- interaction score ([28]; mean of both orientations): 0.616
- interaction score [29]: -0.972

Second part, the binder after the results:

- interaction score [9]: -1.94
- interaction score [10]: -1.52
- interaction score [11]: -1
- interaction score [12]: -1.65
- interaction score [13]: -1.37
Binder: DENAALKAKIAALEAKNAALEAKIAALEG [4H1845-AA]

- interaction score [1]: 0.32
- interaction score [2]: -1.65
Binder: DEIAALEAENAALKAKNAALKAEIAALEG [4H249-AA]

- interaction score [30]: 0.388
- interaction score [31]: -1.06
- interaction score [32]: -2.35
- interaction score [33]: -1.37
- interaction score [34]: -1.22
- interaction score [35]: -1.37
- interaction score [36]: -0.198
- interaction score [17]: 1.57
- interaction score [37]: -1.92
- interaction score [38]: -1.76
- interaction score [39]: -1.85
- interaction score [5]: 1.93
- interaction score [40]: -1.98
- interaction score [41]: -1.76
- interaction score [42]: -1.73
- interaction score [43]: -1.93
- interaction score [8]: -1.81
Binder: DENAALEAKIAALKAKNAALKAEIAALEG [4H1401-AA]

- interaction score [30]: -1.15
- interaction score [31]: -1.55
- interaction score [32]: -2.3
- interaction score [33]: -1.76
- interaction score [34]: -1.63
- interaction score [35]: -1.35
- interaction score [36]: -1.43
- interaction score [37]: -0.654
- interaction score [38]: -1.62
- interaction score [39]: -1.64
- interaction score [40]: -1.36
- interaction score [41]: 0.917
- interaction score [42]: -0.593
- interaction score [43]: -0.573
Binder: DKNAALKAEIAALEAENAALEAKIAALKG [4H3606-AA]

- interaction score [3]: -1.25
- interaction score ([4]; mean of both orientations): -1.39
Binder: DENAALEAEIAALKAKNAALEAKIAALKG [4H1142-AA]
